Marks after values point to notes of the source that are not given here. Positions of bridges follow the written chain, without caps; N, C: chain ends. Residues, ends and D or L forms follow the SMILES beside them. No end group written: not given here.
Experiments:
[1] = blood clearance, pharmacokinetics and tissue distribution of radiolabeled IGF-1 variants, IV in rats; type: in vivo, rat; settings: single IV dose in rats
IGFBP-1 [2] = test: competitive phage ELISA of IGF-1 mutants, IGFBP-1; type: binding, human; settings: relative IC50 IGFBP-1/relative IC50 IGFBP-3
Experimental: (§1) An alanine-scanning mutagenesis approach (Cunningham and Wells, Science, 244: 1081-1085 (1989); U.S. Pat. No. 5,834,250) was used to remove that portion of each side chain of IGF-1 beyond the beta carbon. The contribution of these atoms to the free energy of binding of the IGF-1 analog to IGFBP-1 or to IGFBP-3 was then assessed by competitive phage ELISA. In this assay, IGFBP-1 or IGFBP-3 is used to inhibit IGF-phage mutants from binding to an IGFBP-1- or IGFBP-3-coated immunosorbant plate.
(§2) Immunosorbent plates (Nunc, MAXISORP™, 96 wells) were coated with 100 μl/well of 1 μg/ml IGFBP-1 or IGFBP-3 in PBS buffer pH 7.2 at 4° C. overnight. The plates were then blocked with 0.5% TWEEN 20™/PBS (also used as binding buffer) for 2 hours at room temperature (proteinaceous blocking agents like bovine serum albumin were avoided to prevent potential IGF or IGFBP contamination). E. coli cells (XL1-Blue, Stratagene) freshly transformed with phagemid vector were grown overnight in 5 mL 2YT medium (Sambrook et al., supra) in the presence of M13-VCS helper phage (Stratagene). Phage particles were harvested and resuspended in PBS buffer as described in Lowman, H. B., “Phage Display of Peptide Libraries on Protein Scaffolds,” in Cabilly, S. (ed.), Combinatorial Peptide Library Protocols (Humana Press Inc.: Totowa, N.J., 1998), pp. 249-264. Then phage concentrations were normalized to yield a maximal ELISA signal of 0.2-0.4 for each mutant (Lowman, in Cabilly, S. (ed.), supra). Threefold serial dilutions of soluble competitor were prepared on non-absorbent microtiter plates (Nunc, F, 96 wells) with binding buffer (0.5% TWEEN 20™/PBS) containing phage at the previously determined concentrations. The dilution range of competitor protein extended over six orders of magnitude, starting at 5 μM for IGFBP-1 and 500 nM for IGFBP-3. After blocking, the plates containing immobilized target were washed with 0.05% TWEEN™/PBS buffer and subsequently incubated with 80 μl/well of the premixed phage-competitor solutions for 1 hour at room temperature. After washing, bound phage was detected with 80 μl/well of a solution containing a primary rabbit anti-phage polyclonal antibody and a secondary goat anti-rabbit monoclonal antibody-horseradish peroxidase conjugate in 0.5% TWEEN 20™/PBS. o-Phenylenediamine (Sigma) and tetramethylbenzidine (Kirkegaard and Perry) were used as chromogenic substrates, resulting in product detection at 492 and 450 nm, respectively. IC50 values were determined by fitting the binding data to a generic saturation curve (Lowman, in Cabilly, S. (ed.), supra). At least two individual clones of each IGF-1 mutant were assayed. Numbers in Table XIII represent mean±standard deviation of individually assessed IC50 values.

IGFBP-1 [3] = test: BIACORE kinetics: IGFBP-1 binding to immobilized IGF-1 variants; design: species or system human; settings: from relative KD values
Experimental: (§3) The binding affinities of the IGF variants for IGFBP-1 and IGFBP-3 were determined using a BIACORE™-2000 real time kinetic interaction analysis system (Biacore, Inc., Piscataway, N.J.) to measure association (ka) and dissociation (kd) rates. Carboxymethylated dextran biosensor chips (CM5, BIAcore Inc.) were activated with EDC (N-ethyl-N′-(3-dimethylaminopropyl)-carbodiimide hydrochloride) and NHS(N-hydroxysuccinimide) according to the supplier's instructions. For immobilization, IGF mutants in 20 mM sodium acetate, pH 4.8, were injected onto the biosensor chip at a concentration of 50 μg/ml to yield approximately 450-600 RU's (resonance-responce units) of covalently-coupled protein. Unreacted groups were blocked with an injection of 1 M ethanolamine. Kinetic measurements were carried out by injecting two-fold serial dilutions (starting at 1 μM) of either IGFBP-1 or IGFBP-3 in running buffer (PBS, 0.05% TWEEN 20™, 0.1% ovalbumin, 0.1% sodium azide) at 25 °C using a flow rate of 20 μl/min. Association rates (ka) and dissociation rates (kd) were calculated separately using a 1:1 Langmuir™ association model in the BIACORE™ evaluation software v. 3.0. The equilibrium dissociation constant (KD) was calculated as kd/ka.
(§4) For measurements of IGFBP-1 binding to IGF-1, kinetics experiments were conducted using a single-cysteine IGF-1 variant, Y31C, that was immobilized onto the sensor chip surface via a disulfide linkage (BIACORE™ System Manual Supplement, 5a-1, Pharmacia (1991)).

IGFBP-3 [4] = target: T1, IGFBP-3 (Homo sapiens, UniProt P17936); test: BIACORE kinetics: IGFBP-3 binding to immobilized IGF-1 variants; settings: for Binding to IGFBP-3 ka: 25 C; for Binding to IGFBP-3 KD: kd/ka
T1 construct: made in house
Experimental: as §3

IGFBP-1 [5] = target: T2, IGFBP-1 (Homo sapiens, UniProt P08833); test: BIACORE kinetics: IGFBP-1 binding to immobilized IGF-1 variants; design: made in house; host or cells: CHO cells; settings: for Binding to IGFBP-1 ka: 25 C; for Binding to IGFBP-1 KD: kd/ka
T2 sequence (P08833 26-259): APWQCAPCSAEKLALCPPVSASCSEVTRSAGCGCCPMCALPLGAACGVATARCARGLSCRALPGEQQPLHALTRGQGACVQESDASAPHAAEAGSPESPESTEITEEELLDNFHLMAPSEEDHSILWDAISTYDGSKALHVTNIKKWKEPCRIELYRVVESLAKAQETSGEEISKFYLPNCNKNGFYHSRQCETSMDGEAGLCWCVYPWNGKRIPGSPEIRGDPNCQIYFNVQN
Experimental: as §3, §4

[6] = test system: human articular cartilage explants; test: human articular cartilage explants from diseased joints: matrix synthesis (35S-sulfate uptake); type: cell-based; settings: for matrix synthesis in diseased human articular cartilage: 40 ng/ml
Experimental: The metacarpophalangeal joint of a six-month old pig was cultured as described above for bovine articular cartilage in Example 8. This explant was cultured in media alone or in media with D12K, D12R, or wild-type IGF-1 (at 10 nM) alone or in the presence of IL-1α at 1 ng/ml, as described above. Human explants were from patients undergoing joint replacement surgery. Articular cartilage was harvested, aliquoted (40-45 mg/tube) and cultured as above. […] Fresh media was added on days 0, 1, 2, and 3. Matrix breakdown was determined by measuring the amount of proteoglycans in the media using the DMMB assay as set forth above. Matrix (proteoglycan) synthesis was determined by measuring ^35S-sulfate uptake as set forth above.
Human articular cartilage explants were cultured in media or treated with IGF-1 by itself or in combination with either BP3-40 or BP3-15 at 0.1 mg/ml as set forth above. Matrix breakdown was determined by measuring the release of proteoglycans into media as described above. Matrix synthesis was determined by counting the amount of ^35S-sulfate incorporated into the cartilage tissue as described above.
The same Material and Methods (for human tissue) were used as described above, using articular cartilage explants from human joints removed from patients undergoing joint replacement. These explants were cultured with IGF-1 alone at 40 ng/ml, or IGF-1 with BP1-17, BP3-15, or BP1-16 (0.1 mg/ml), or IGF-1 with buffer (HEPES).

IGFBP-3 [7] = target: T1, IGFBP-3; test: BIACORE competition assay: IGFBP-3 binding to immobilized IGF-1; settings: for IC50 (mut) / IC50 (wt): IGF-1 inhibition, wt = BP3-01-ox
Experimental: IGF-1 was immobilized on a dextran chip for inhibition assays using a BIACORE™ 2000 surface-plasmon-resonance device (BIAcore, Inc., Piscataway, N.J.) to measure free binding protein. IGF-1 was biotinylated as described above, and injected over a chip to which streptavidin had been coupled (BIAcore, Inc.) to give 400 to 800 RU (response units) of immobilized IGF-1. […] Serial dilutions of peptide were mixed with a constant concentration (40 nM) of IGFBP-3. After incubation for >1 hour at room temperature, an aliquot of 20 μL was injected at a flow rate of 20 μL/min over the IGF-1 chip. Following the injection, a response reading was taken to measure the relative amount of IGFBP-3 bound to the IGF-1.

IGFBP-3 [8] = target: T1, IGFBP-3; test: competitive phage ELISA of IGF-1 mutants, IGFBP-3; type: binding; settings: phage display, soluble IGFBP-3 competitor
Experimental: as §1, §2

IGFBP-1 [9] = target: T2, IGFBP-1; test: competitive phage ELISA of IGF-1 mutants, IGFBP-1; type: binding; design: made in house; host or cells: CHO cells; settings: phage display, soluble IGFBP-1 competitor
Experimental: as §1, §2

T1 sequence (P17936 28-291): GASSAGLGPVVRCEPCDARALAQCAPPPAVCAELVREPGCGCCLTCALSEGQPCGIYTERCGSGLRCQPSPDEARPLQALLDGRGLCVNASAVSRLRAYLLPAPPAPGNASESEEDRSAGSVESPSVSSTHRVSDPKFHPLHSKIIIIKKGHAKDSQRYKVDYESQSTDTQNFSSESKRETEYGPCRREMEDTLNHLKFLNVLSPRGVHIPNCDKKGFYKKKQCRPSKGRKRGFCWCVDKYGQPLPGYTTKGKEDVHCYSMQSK

## ^125I-F49A: radiolabeled F49A IGF-1
[1]
  Half-life t1/2^α: 3.84 ± 3.12 min
  Half-life t1/2^β: 0.971 ± 0.336^+ hr
  Half-life t1/2^γ: 8.97 ± 4.50 h
  clearance: 427 ± 125*^+ ml/hr/kg
  steady-state distribution volume: 3201 ± 488*^+ ml/kg

## G1S-A70V: IGF-1 double mutant, first and last amino acids changed; template for alanine scan
IGFBP-1 [2]
  relative specificity: 1.0
IGFBP-1 [3]
  Specificity Relative BP-1 / Relative BP-3: 0.7
IGFBP-3 [4]
  Binding to IGFBP-3 ka: 2.9 ± 0.8 ×10^5 M^−1s^−1
IGFBP-1 [5]
  Binding to IGFBP-1 ka: 3.2 ± 0.2 ×10^4 M^−1s^−1

## E3A/F49A: double mutant of IGF-1 combining point mutations E3A and F49A
[6]
  matrix synthesis in diseased human articular cartilage: stimulated matrix synthesis in diseased human articular cartilage

## CSCC[C@H](NC(=O)[C@H](CC(N)=O)NC(=O)[C@@H]1CSSC[C@H](NC(=O)[C@@H](NC(=O)[C@H](CCC(=O)O)NC(=O)[C@H](CCC(=O)O)NC(=O)[C@H](CO)NC(=O)[C@H](C)N)C(C)C)C(=O)N[C@@H](Cc2c[nH]c3ccccc23)C(=O)N2CCC[C@H]2C(=O)N[C@@H](C(C)C)C(=O)N[C@@H](C)C(=O)N[C@@H](CCC(=O)O)C(=O)N[C@@H](Cc2c[nH]c3ccccc23)C(=O)N[C@@H](Cc2ccc(O)cc2)C(=O)N[C@@H](CC(C)C)C(=O)N1)C(=O)N[C@@H](Cc1c[nH]c2ccccc12)C(=O)NCC(=O)N[C@@H](CCCNC(=N)N)C(=O)O [4D3.3P] (H-ASEEVCWPVAEWYLCNMWGR-OH; disulfide 6-15; N-terminus and C-terminus assumed)
IGFBP-3 [7]
  IC50: 5600 nM
  IC50 (mut) / IC50 (wt): 2.8

## CSCC[C@H](NC(=O)[C@H](CC(N)=O)NC(=O)[C@@H]1CSSC[C@H](NC(=O)[C@@H](N)C(C)C)C(=O)N[C@@H](Cc2c[nH]c3ccccc23)C(=O)N2CCC[C@H]2C(=O)N[C@@H](C(C)C)C(=O)N[C@@H](C)C(=O)N[C@@H](CCC(=O)O)C(=O)N[C@@H](Cc2c[nH]c3ccccc23)C(=O)N[C@@H](Cc2ccc(O)cc2)C(=O)N[C@@H](CC(C)C)C(=O)N1)C(=O)N[C@@H](Cc1c[nH]c2ccccc12)C(=O)NCC(=O)O [BP3-16] (H-VCWPVAEWYLCNMWG-OH; disulfide 2-11; N-terminus and C-terminus assumed)
IGFBP-3 [7]
  IC50: 30000 nM

## P39A: IGF-1 single alanine mutant
IGFBP-1 [3]
  Specificity Relative BP-1 / Relative BP-3: 0.7
IGFBP-3 [4]
  Binding to IGFBP-3 ka: 2.7 ± 0.2 ×10^5 M^−1s^−1
  Binding to IGFBP-3 KD: wild-type kinetics
IGFBP-1 [5]
  Binding to IGFBP-1 ka: 3.1 ± 0.2 ×10^4 M^−1s^−1
  Binding to IGFBP-1 KD: wild-type kinetics

## WPVAEWYLCN [BP3-24]
IGFBP-3 [7]
  IC50 (mut) / IC50 (wt): >500

## T4A: IGF-1 single alanine mutant
IGFBP-1 [2]
  relative specificity: 2.2
IGFBP-3 [8]
  IC50: 0.8 ± 0.02 nM
IGFBP-1 [3]
  Specificity Relative BP-1 / Relative BP-3: 3.3
IGFBP-3 [4]
  Binding to IGFBP-3 ka: 1.8 ± 0.6 ×10^5 M^−1s^−1
IGFBP-1 [9]
  IC50: 19.4 ± 6.4 nM
IGFBP-1 [5]
  Binding to IGFBP-1 ka: 1.9 ± 0.2 ×10^4 M^−1s^−1

## F16A/F49A: double mutant of IGF-1, F16A and F49A
IGFBP-3 [4]; Table XV
  IGFBP-3 ka: 0.4 ± 0.1 ×10^5 M^−1
  IGFBP-3 kd: 38.6 ± 2.7 ×10^−4 s^−1
[6]
  matrix synthesis in diseased human articular cartilage: stimulated matrix synthesis in diseased human articular cartilage

## R36A: IGF-1 single alanine mutant
IGFBP-1 [3]
  Specificity Relative BP-1 / Relative BP-3: 1.4
IGFBP-3 [4]
  Binding to IGFBP-3 ka: 4.0 ± 0.1 ×10^5 M^−1s^−1
  Binding to IGFBP-3 KD: wild-type kinetics
IGFBP-1 [5]
  Binding to IGFBP-1 ka: 4.0 ± 0.2 ×10^4 M^−1s^−1
  Binding to IGFBP-1 KD: wild-type kinetics

## CRAGPLQWLCEK-nh2 (CRAGPLQWLCEK-NH2; disulfide 1-10 (inferred)) [BP1-17]
[6]; IGF-1 40 ng/ml, peptide 0.1 mg/ml
  matrix synthesis, IGF-1 in combination with peptide: to some extent

## V11A: IGF-1 single alanine mutant
IGFBP-1 [3]
  Specificity Relative BP-1 / Relative BP-3: 1.1
IGFBP-3 [4]
  Binding to IGFBP-3 ka: 3.1 ± 0.5 ×10^5 M^−1s^−1
IGFBP-1 [5]
  Binding to IGFBP-1 ka: 1.9 ± 0.1 ×10^4 M^−1s^−1

From patent publication US7423017B2, “Method for treating cartilage disorders” (Genentech, Inc., priority 1997, dated 2008)
